This is an account of results in article PMC4331651, “The use of SMALPs as a novel membrane protein scaffold for structure study by negative stain electron microscopy” (Biochimica et Biophysica Acta, 2015).

For experiment [1], the target named is T1, AcrB (Escherichia coli, UniProt P31224).
T1 construct: full-length AcrB with C-terminal octahistidine tag (kept); expressed in E. coli, extracted with styrene maleic acid co-polymer into SMALPs, cobalt resin purified; 110 kDa band; homotrimer (~360 kDa)
Nature of the experiment: fluorescence polarization titration of R6G with AcrB SMALP. Format: binding. From the text: fluorescence polarization titration of R6G with AcrB SMALP on AcrB | measure the Kd value of rhodamine 6G binding.
(In general: Fluorescence polarisation rises when a labelled molecule tumbles more slowly, as on binding a larger partner.)

The target of experiment [2] is Escherichia coli multidrug transporter AcrB bearing a C-terminal octahistidine tag, in SMA lipid particles (SMALPs) (Escherichia coli) (UniProt P31224). The experiment in a line: negative stain electron microscopy (single particle, 3D reconstruction); protomers to trimer; AcrB SMALPs ~20 ug/mL on carbon-coated grids, 1% uranyl acetate; 6884 singlet particles; refined with C1 and with C3 symmetry.

Experiment [3] has the same target. Nature of the experiment: AUC; protomers to trimer; sedimentation velocity, 0.5 mg/mL AcrB-SMALP, 50 mM Tris pH 8 with 10 mM or 500 mM NaCl, 40,000 rpm, 20 h, 4 °C, c(s) analysis.

T1 sequence (P31224 whole entry): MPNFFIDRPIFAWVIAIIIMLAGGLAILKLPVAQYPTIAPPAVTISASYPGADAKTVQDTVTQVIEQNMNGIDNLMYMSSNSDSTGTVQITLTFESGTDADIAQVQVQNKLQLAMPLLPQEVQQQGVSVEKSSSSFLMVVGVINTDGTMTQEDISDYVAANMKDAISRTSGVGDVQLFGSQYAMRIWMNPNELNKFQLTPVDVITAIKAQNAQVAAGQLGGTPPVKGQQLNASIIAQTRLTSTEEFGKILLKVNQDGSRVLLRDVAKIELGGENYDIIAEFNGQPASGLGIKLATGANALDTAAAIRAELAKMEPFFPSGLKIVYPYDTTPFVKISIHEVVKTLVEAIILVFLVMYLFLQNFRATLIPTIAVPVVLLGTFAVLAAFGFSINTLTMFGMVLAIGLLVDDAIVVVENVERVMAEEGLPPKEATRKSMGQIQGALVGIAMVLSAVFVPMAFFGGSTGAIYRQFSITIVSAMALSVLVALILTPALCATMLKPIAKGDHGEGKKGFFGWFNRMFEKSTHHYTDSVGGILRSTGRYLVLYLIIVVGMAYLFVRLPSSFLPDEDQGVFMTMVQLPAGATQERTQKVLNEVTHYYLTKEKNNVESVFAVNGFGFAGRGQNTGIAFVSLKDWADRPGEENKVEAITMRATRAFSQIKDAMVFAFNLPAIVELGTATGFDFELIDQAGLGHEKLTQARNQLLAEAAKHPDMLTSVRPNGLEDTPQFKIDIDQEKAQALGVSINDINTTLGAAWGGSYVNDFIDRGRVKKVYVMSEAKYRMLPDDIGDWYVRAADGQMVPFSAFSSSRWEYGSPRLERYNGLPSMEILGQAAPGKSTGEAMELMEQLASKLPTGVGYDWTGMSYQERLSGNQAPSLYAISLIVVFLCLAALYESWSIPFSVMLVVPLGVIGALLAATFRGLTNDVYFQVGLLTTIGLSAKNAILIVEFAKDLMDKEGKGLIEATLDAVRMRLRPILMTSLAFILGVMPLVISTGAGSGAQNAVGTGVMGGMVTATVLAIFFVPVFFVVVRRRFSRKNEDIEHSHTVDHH

By Kd is commonly meant the constant that tells how readily two partners part at equilibrium. As for `CCN=c1cc2oc3cc(NCC)c(C)cc3c(-c3ccccc3C(=O)OCC)c-2cc1C` [rhodamine 6G], in experiment [1], the Kd amounted to 52 ± 6.6 nM.

One may read the stoichiometry N as a count of units in the complex or per binding partner. As for “Escherichia coli multidrug transporter AcrB bearing a C-terminal octahistidine tag, in SMA lipid particles (SMALPs) (from UniProt P31224 1-1049) (natural protein)”, the stoichiometry N in experiment [2] and in experiment [3] was 3 in each case.
